Laboratory results: the supplement of paper PMC10724198
± gives the standard deviation of the averaged measurements.

Tested on: Saccharomyces cerevisiae
Assay: protein stability index of tFT-peptide fusion (C-terminal peptide) (PSI (0-1 scale)); higher = more stable (slower turnover)
Conditions: genetic background: das1 deletion; temperature: 30 C
Method: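 MPS profiling in S. cerevisiae of the yeast C-terminome library: the last 12 aa of each annotated ORF are fused to the C-terminus of a sfGFP-mCherry timer, after a GGGS linker. Cells are FACS-sorted into 8 mCherry/sfGFP bins and deep-sequenced. PSI runs from 0 (unstable) to 1 (stable); wild type and das1Δ backgrounds, two technical replicates each.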

GVETIAKCIDLL [CAR2 C-terminal 12 aa] and GVIIELGSWSAW [YDR415C C-terminal 12 aa] are within error of each other in protein stability index: 0.71 ± 0.017 for the first, 0.7055 ± 0.0066 for the second.

GWLQDKHFEKYL [YOR338W C-terminal 12 aa] and HAKGSGNTMNRG [TAP42 C-terminal 12 aa] are within error of each other in protein stability index: 0.705 ± 0.022 for the first, 0.691 ± 0.029 for the second.

Going from HCQPQEILVLRQ [PEX10 C-terminal 12 aa] to HDRSESDSDLDI [PLP1 C-terminal 12 aa], the protein stability index falls from 0.7094 ± 0.0062 to 0.671 ± 0.015.

Going from HELSKDFSNLGI [NAM7 C-terminal 12 aa] to HGNWSRVVTDLN [BAT2 C-terminal 12 aa], the protein stability index falls from 0.7008 ± 0.00089 to 0.6869 ± 0.0056.

Going from HLENELKDQQEL [ATM1 C-terminal 12 aa] to HLPKATSLPYEK [YER097W C-terminal 12 aa], the protein stability index falls from 0.718 ± 0.0099 to 0.677 ± 0.0085.

Compared with HPWFAEYYHHAS [PHO85 C-terminal 12 aa], HRSFFKDIIPEL [KIN82 C-terminal 12 aa] is lower in protein stability index: 0.7438 ± 0.0043 for the first, 0.723 ± 0.013 for the second.

IAEGKSVGIIGA [HXK2 C-terminal 12 aa] and IAKEHDKIPKFL [INA22 C-terminal 12 aa] are within error of each other in protein stability index: 0.694 ± 0.022 for the first, 0.695 ± 0.027 for the second.

IASKNNWLPLQW [SIW14 C-terminal 12 aa] and IDDEDVVSLFAK [RBG2 C-terminal 12 aa] are within error of each other in protein stability index: 0.73114 ± 0.00013 for the first, 0.714 ± 0.035 for the second.

IEEAASSLGFKR [PES4 C-terminal 12 aa] and IEELTDTLNSTI [PEX29 C-terminal 12 aa] are within error of each other in protein stability index: 0.726 ± 0.027 for the first, 0.7059 ± 0.0039 for the second.

IEQSFGVIEYFP [SCW11 C-terminal 12 aa] and IFHELKRQNSKN [RGD2 C-terminal 12 aa] are within error of each other in protein stability index: 0.717 ± 0.037 for the first, 0.739 ± 0.035 for the second.

Compared with “IFVYPLFLLSTF [YEL053W-A C-terminal 12 aa]”, IGTLIPEPGVNV [DAP1 C-terminal 12 aa] is higher in protein stability index: 0.482 ± 0.051 for the first, 0.6825 ± 0.0027 for the second.

IHCRSQNCLSLS [VBA4 C-terminal 12 aa] and IHKENKEFYLIL [YGL118C C-terminal 12 aa] are within error of each other in protein stability index: 0.687 ± 0.024 for the first, 0.703 ± 0.015 for the second.

Compared with IIDELEQIALQQ [BRE2 C-terminal 12 aa], IIDELQKCHMQE [CDC27 C-terminal 12 aa] is higher in protein stability index: 0.69735 ± 0.00015 for the first, 0.706 ± 0.0081 for the second.

IKCKMPWSSPRQ [YOR238W C-terminal 12 aa] and ILDLDPRTEAYC [YGL260W C-terminal 12 aa] are within error of each other in protein stability index: 0.705 ± 0.03 for the first, 0.733 ± 0.02 for the second.

Compared with ILDMFAKRWILS [IZH3 C-terminal 12 aa], ILDSFEEWSDEE [HDA1 C-terminal 12 aa] is higher in protein stability index: 0.697 ± 0.015 for the first, 0.7224 ± 0.0053 for the second.

Going from ILFSFFCNLVAK [VTC4 C-terminal 12 aa] to ILKKNPDYREEE [RPN1 C-terminal 12 aa], the protein stability index rises from 0.524 ± 0.011 to 0.696 ± 0.0054.

ILTLVETLSEQE [VMA22 C-terminal 12 aa] and INDKYKSNRTDS [ATG2 C-terminal 12 aa] are within error of each other in protein stability index: 0.704 ± 0.009 for the first, 0.697 ± 0.022 for the second.

Compared with INGIIDPSELSD [ALO1 C-terminal 12 aa], INIVVDMLASQH [RMD1 C-terminal 12 aa] is lower in protein stability index: 0.69 ± 0.029 for the first, 0.606 ± 0.025 for the second.

Going from IPLVISYCISEE [ATX2 C-terminal 12 aa] to IPNIFGKFTVTS [YKL091C C-terminal 12 aa], the protein stability index rises from 0.575 ± 0.013 to 0.697 ± 0.0085.

IQAMLKSLDSLK [SNL1 C-terminal 12 aa] and IQEDSPVMDNNT [FAP1 C-terminal 12 aa] are within error of each other in protein stability index: 0.691 ± 0.034 for the first, 0.722 ± 0.041 for the second.

IQVVKSKVLNIE [YDR248C C-terminal 12 aa] and IRSLPLPFPHMD [MIG1 C-terminal 12 aa] are within error of each other in protein stability index: 0.691 ± 0.028 for the first, 0.723 ± 0.0091 for the second.

Going from IVNVMFCLVRGF [DSC3 C-terminal 12 aa] to IVTKMDLLSYLA [CYS4 C-terminal 12 aa], the protein stability index rises from 0.42 ± 0.021 to 0.674 ± 0.013.

IWCAPTVDARPI [NIT1 C-terminal 12 aa] and IYENDPNTKKNN [ERG3 C-terminal 12 aa] are within error of each other in protein stability index: 0.7229 ± 0.0014 for the first, 0.736 ± 0.022 for the second.

First: KAASLSLKSTKY [PRP5 C-terminal 12 aa]
Second: KADIACAGKQLI [YHL042W C-terminal 12 aa]
The protein stability index of the first is higher: 0.71161 ± 0.00019 for the first, 0.676 ± 0.0096 for the second.

Compared with KADNWKCKIQSA [GDA1 C-terminal 12 aa], KAERCQYRLVTA [YCR025C C-terminal 12 aa] is lower in protein stability index: 0.69 ± 0.018 for the first, 0.475 ± 0.031 for the second.

Compared with KAFFISKTLPCI [YLR112W C-terminal 12 aa], KAMILTSYRYLE [CLP1 C-terminal 12 aa] is lower in protein stability index: 0.7141 ± 0.0031 for the first, 0.675 ± 0.035 for the second.

KCVNCGHRWKEN [RPC11 C-terminal 12 aa] and KDFQVNKEIKPY [SIR4 C-terminal 12 aa] are within error of each other in protein stability index: 0.708 ± 0.012 for the first, 0.713 ± 0.052 for the second.

Compared with KDGDVVYDNGFM [CHS7 C-terminal 12 aa], KDINLSEGNENE [URA8 C-terminal 12 aa] is lower in protein stability index: 0.7085 ± 0.007 for the first, 0.6774 ± 0.005 for the second.

Going from KDKKKDKSNSSI [HMO1 C-terminal 12 aa] to KDSIKLLDKARL [MSS2 C-terminal 12 aa], the protein stability index rises from 0.7022 ± 0.0049 to 0.774 ± 0.021.

KDVIEEALSRFG [UTP7 C-terminal 12 aa] and KEKSESLQEEIN [YET3 C-terminal 12 aa] are within error of each other in protein stability index: 0.704 ± 0.0086 for the first, 0.691 ± 0.0081 for the second.

KFDKALYKKTTG [YMR206W C-terminal 12 aa] and KFKIQNILNSTF [SIP4 C-terminal 12 aa] are within error of each other in protein stability index: 0.712 ± 0.038 for the first, 0.714 ± 0.011 for the second.

Compared with KGLFWDPACVIA [MFA2 C-terminal 12 aa], KGLQTVVVEEDA [RPL31A C-terminal 12 aa] is lower in protein stability index: 0.731 ± 0.022 for the first, 0.6888 ± 0.0012 for the second.

KHASELSSNSKF [CTA1 C-terminal 12 aa] and KHDVLSTLPHNN [SKO1 C-terminal 12 aa] are within error of each other in protein stability index: 0.702 ± 0.029 for the first, 0.7043 ± 0.0056 for the second.

“KHKNILLFNNNT [YAL068W-A C-terminal 12 aa]” and KHVMMDMQQPSQ [MRPS17 C-terminal 12 aa] are the same in protein stability index: 0.699 ± 0.011 for the first, 0.699 ± 0.022 for the second.

First: KILVFDKNLMNR [YLR154W-E C-terminal 12 aa]
Second: KKDFNEDDSLFG [VPS55 C-terminal 12 aa]
The protein stability index of the first is lower: 0.699 ± 0.0098 for the first, 0.722 ± 0.013 for the second.

KKKRNKNKKAGK [ETP1 C-terminal 12 aa] and KKKSKSSKKVKV [ESF1 C-terminal 12 aa] are within error of each other in protein stability index: 0.691 ± 0.023 for the first, 0.707 ± 0.017 for the second.

KKQLLPSKTVDN [HED1 C-terminal 12 aa] and KKRDPITGEVFE [ERG5 C-terminal 12 aa] are within error of each other in protein stability index: 0.688 ± 0.013 for the first, 0.6849 ± 0.0021 for the second.

KLDVDDEENEGF [MRD1 C-terminal 12 aa] and KLENESLPNLSG [TRI1 C-terminal 12 aa] are within error of each other in protein stability index: 0.684 ± 0.029 for the first, 0.691 ± 0.013 for the second.

KNEELSKKHFSK [ROK1 C-terminal 12 aa] and KPPKNKYKVVRR [SEC65 C-terminal 12 aa] are within error of each other in protein stability index: 0.718 ± 0.013 for the first, 0.714 ± 0.03 for the second.

Going from KQKDKEKNALLL [YBR113W C-terminal 12 aa] to KRKRRKVRARSK [RPL41A C-terminal 12 aa], the protein stability index rises from 0.689 ± 0.016 to 0.7678 ± 0.006.

KSASSSPAPKDT [TRM10 C-terminal 12 aa] and KTDPNEPANDYR [DLD1 C-terminal 12 aa] are within error of each other in protein stability index: 0.693 ± 0.013 for the first, 0.6799 ± 0.00072 for the second.
